Assay results reported in paper PMC8263624, “Asymmetric reconstruction of mammalian reovirus reveals interactions among RNA, transcriptional factor µ2 and capsid proteins” (Nature Communications, 2021).

Molecular target: the molecule itself
Assay: cryo-EM structure; asymmetric (C1) vertex sub-particle reconstructions of native MRV ISVP at 3.3 Å, asymmetric full ISVP at 4.3 Å; isolated virus particles in PBS pH 7.4; proteins assembled in the particle, in situ

| Protein | stoichiometry N |
| --- | --- |
| mRNA capping protein λ2 (enzyme, mRNA capping protein λ2 of mammalian reovirus serotype Dearing 3, native in the virus particle; 60 copies forming 12 pentameric turrets; also called capping enzyme λ2; turret) MANVWGVRLADSLSSPTIETRTRQYTLHDLCSDLDANPGREPWKPLRNQRTNNIVAVQLFRPLQGLVLDTQLYGFPGAFDDWERFMREKLRVLKYEVLRIYPISNYSNEHVNVFVANALVGAFLSNQAFYDLLPLLIINDTMIGDLLGTGASLSQFFQSHGDVLEVAAGRKYLQMENYSNDDDDPPLFAKDLSDYAKAFYSDTYEVLDRFFWTHDSSAGVLVHYDKPTNGHHYLLGTLTQMVSAPPYIINATDAMLLESCLEQFSANVRARPAQPVTRLDQCYHLRWGAQYVGEDSLTYRLGVLSLLATNGYQLARPIPRQLTNRWLSSFVSQIMSDGVNETPLWPQERYVQIAYDSPSVVDGATQYGYVRKNQLRLGMRISALQSLSDTPSPVQWLPQYTIDQAAMDEGDLMVSRLTQLPLRPDYGNIWVGDALSYYVDYNRSHRVVLSSELPQLPDTYFDGDEQYGRSLFSLARKIGDRSLVKDTAVLKHAYQAIDPNTGKEYLRSRQSVAYFGASAGHSGADQPLVIEPWIQGKISGVPPPSSVRQFGYDVARGAIVDLARPFPSGDYQFVYSDVDQVVDGHDDLSISSGLVESLLSSCMHATAPGGSFVVKINFPTRPVWHYIEQKILPNITSYMLIKPFVTNNVELFFVAFGVHQHSSLTWTSGVYFFLVDHFYRYETLSTISRQLPSFGYVDDGSSVTGIETISIENPGFSNMTQAARIGISGLCANVGNARKSIAIYESHGARVLTITSRRSPASARRKSRLRYLPLIDPRSLEVQARTILPADPVLFENVSGASPHVCLTMMYNFEVSSAVYDGDVVLDLGTGPEAKILELIPATSPVTCVDIRPTAQPSGCWNVRTTFLELDYLSDGWITGVRGDIVTCMLSLGAAAAGKSMTFDAAFQQLIKVLSKSTANVVLVQVNCPTDVVRSIKGYLEIDSTNKRYRFPKFGRDEPYSDMDALEKICRTAWPNCSITWVPLSYDLRWTRLALLESTTLSSASIRIAELMYKYMPIMRIDIHGLPMEKRGNFIVGQNCSLVIPGFNAQDVFNCYFNSALAFSTEDVNAAMIPQVSAQFDATKGEWTLDMVFSDAGIYTMQALVGSNANPVSLGSFVVDSPDVDITDAWPAQLDFTIAGTDVDITVNPYYRLMTFVRIDGQWQIANPDKFQFFSSASGTLVMNVKLDIADKYLLYYIRDVQSRDVGFYIQHPLQLLNTITLPTNEDLFLSAPDMREWAVKESGNTICILNSQGFVLPQDWDVLTDTISWSPSIPTYIVPPGDYTLTPL | 5 |
| capsid shell protein (CSP) λ1 (natural protein, capsid shell protein λ1 of mammalian reovirus serotype Dearing 3, native in the virus particle; 120 copies in each particle as λ1A/λ1B dimers; five pairs (1-5) around each vertex; also called λ1A; λ1B) MKRIPRKTKGKSSGKGNDSTERADDGSSQLRDKQNNKAGPATTEPGTSNREQYKARPGIASVQRATESAEMPMKNNDEGTPDKKGNTKGDLVNEHSEAKDEADEATKKQAKDTDKSKAQVTYSDTGINNANELSRSGNVDNEGGSNQKPMSTRIAEATSAIVSKHPARVGLPPTASSGHGYQCHVCSAVLFSPLDLDAHVASHGLHGNMTLTSSDIQRHITEFISSWQNHPIVQVSADVENKKTAQLLHADTPRLVTWDAGLCTSFKIVPIVPAQVPQDVLAYTFFTSSYAIQSPFPEAAVSRIVVHTRWASNVDFDRDSSVIMAPPTENNIHLFKQLLNTETLSVRGANPLMFRANVLHMLLEFVLDNLYLNRHTGFSQDHTPFTEGANLRSLPGPDAEKWYSIMYPTRMGTPNVSKICNFVASCVRNRVGRFDRAQMMNGAMSEWVDVFETSDALTVSIRGRWMARLARMNINPTEIEWALTECAQGYVTVTSPYAPIVNRLMPYRISNAERQISQIIRIMNIGNNATVIQPVLQDISVLLQRISPLQIDPTIISNTMSTVSESTTQTLSPASSILGKLRPSNSDFSSFRVALAGWLYNGVVTTVIDDSSYPKDGGSVTSLENLWDFFILALALPLTTDPCAPVKAFMTLANMMVGFETIPMDNQIYTQSRRASAFSTPHTWPRCFMNIQLISPIDAPILRQWAEIIHRYWPNPSQIRYGAPNVFGSANLFTPPEVLLLPIDHQPANVTTPTLDFTNELTNWRARVCELMKNLVDNQRYQPGWTQSLVSSMRGTLDKLKLIKSMTPMYLQQLAPVELAVIAPMLPFPPFQVPYVRLDRDRVPTMVGVTRQSRDTITQPALSLSTTNTTVGVPLALDARAITVALLSGKYPPDLVTNVWYADAIYPMYADTEVFSNLQRDMITCEAVQTLVTLVAQISETQYPVDRYLDWIPSLRASAATAATFAEWVNTSMKTAFDLSDMLLEPLLSGDPRMTQLAIQYQQYNGRTFNIIPEMPGSVIADCVQLTAEVFNHEYNLFGIARGDIIIGRVQSTHLWSPLAPPPDLVFDRDTPGVHIFGRDCRISFGMNGAAPMIRDETGLMVPFEGNWIFPLALWQMNTRYFNQQFDAWIKTGELRIRIEMGAYPYMLHYYDPRQYANAWNLTSAWLEEITPTSIPSVPFMVPISSDHDISSAPAVQYIISTEYNDRSLFCTNSSSPQTIAGPDKHIPVERYNILTNPDAPPTQIQLPEVVDLYNVVTRYAYETPPITAVVMGVP | 2 |
| receptor binding protein σ1 (natural protein, 12 trimers in each particle; Seen only in the sub-particle reconstruction; also called σ1 trimer; σ1 spike) MDPRLREEVVRLIIALTSDNGASLSKGLESRVSALEKTSQIHSDTILRITQGLDDANKRIIALEQSRDDLVASVSDAQLAISRLESSIGALQTVVNGLDSSVTQLGARVGQLETGLAELRVDHDNLVARVDTAERNIGSLTTELSTLTLRVTSIQADFESRISTLERTAVTSAGAPLSIRNNRMTMGLNDGLTLSGNNLAIRLPGNTGLNIQNGGLQFRFNTDQFQIVNNNLTLKTTVFDSINSRIGATEQSYVASAVTPLRLNSSTKVLDMLIDSSTLEINSSGQLTVRSTSPNLRYPIADVSGGIGMSPNYRFRQSMWIGIVSYSGSGLNWRVQVNSDIFIVDDYIHICLPAFDGFSIADGGDLSLNFVTGLLPPLLTGDTEPAFHNDVVTYGAQTVAIGLSSGGAPQYMSKNLWVEQWQDGVLRLRVEGGGSITHSNSKWPAMTVSYPRSFT | 3 |
| membrane penetration protein µ1 (natural protein, N-myristoyl group at the amino terminus, N-terminal (N-myristoyl) fragment of penetration protein μ1 of mammalian reovirus serotype Dearing 3, up to the autolytic cleavage site between N42 and P43; penetration protein μ1 of mammalian reovirus serotype Dearing 3 from the autolytic cleavage site between N42 and P43 onwards; 600 copies (200 trimers) in each particle; also called μ1; penetration protein μ1; copies: 3 + 3) chain 1: MGNASSIVQTINVTGDGNVFKPSAETSSTAVPSLSLSPGMLN chain 2: PGGVPWIAVGDETSVTSPGALRRMTSKDIPETAIINTDNSSGAVPSESALVPYIDEPLVVVTEHAITNFTKAEMALEFNREFLDKMRVLSVSPKYSDLLTYVDCYVGVSARQALNNFQKQVPVITPTRQTMYVDSIQAALKALEKWEIDLRVAQTLLPTNVPIGEVSCPMQSVVKLLDDQLPDDSLIRRYPKEAAVALAKRNGGIQWMDVSEGTVMNEAVNAVAASALAPSASAPPLEEKSKLTEQAMDLVTAAEPEIIASLAPVPAPVFAIPPKPADYNVRTLRIDEATWLRMIPKSMNTPFQIQVTDNTGTNWHLNLRGGTRVVNLDQIAPMRFVLDLGGKSYKETSWDPNGKKVGFIVFQSKIPFELWTAASQIGQATVVNYVQLYAEDSSFTAQSIIATTSLAYNYEPEQLNKTDPEMNYYLLATFIDSAAITPTNMTQPDVWDALLTMSPLSAGEVTVKGAVVSEVVPADLIGSYTPESLNASLPNDAARCMIDRASKIAEAIKIDDDAGPDEYSPNSVPIQGQLAISQLETGYGVRIFNPKGILSKIASRAMQAFIGDPSTIITQAAPVLSDKNNWIALAQGVKTSLRTKSLSAGVKTAVSKLSSSESIQNWTQGFLDKVSAHFPAPKPDCPTSGDSGESSNRRVKRDSYAGVVKRGYTR | 3 |
